According to the nanobody polyreactivity screen of Harvey et al. (2022):

Test: yeast display, Sf9 membrane polyspecificity reagent, FACS + sequencing; frameworks hold sequencing errors
In short: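 Sorting gates, low and high (top ~1%), were placed on anti-HA fluorescence to track expression and on streptavidin fluorescence to track reagent binding. A clone's polyreactivity label is taken from the gate it came out of. The reagent was 10% biotinylated, detergent-solubilized Sf9 membrane, applied for 1 hour at 4 °C to galactose-induced yeast display cells.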

Sequence	polyreactivity (PSR sort gate)
QGQLVESGGGLVQAGGSLRLSCAASGGIFTDYAMGWYRQAPGKERELVAAITRRGGRTYYADSVKGRFTISRDNAKNPVYLQMNSLKPEDTAVYYCAATRSGEYDYWGQGTQVTVSS	high polyreactivity
QGQLVESGGGLVQAGGSLRLSCAASGIILSAYALGWYRQAPGNERELVAAITRRGGRTYYADSVKGRFTISRDNAKNTVYLQMNSLKPEDTAVYYCATVQSGRVRTYDYWGQGTQVTVSS	high polyreactivity
QGQLVESGGGLVQAGGSLRLSCAASGISLKYAMGWYRQAPGKERELVASISSRGTSTYYADSVKGRFTISRDNAMNTVYLQMNSLKPEDTAVYYCNTVPPYWWGYWYKGDHWGQGTQGTVSS	high polyreactivity
QGQLVESGGGLVQAGGSLRLSCAASGRIFVANAMGWYRQAPGKERELVAAISGRGSRTYYADSVKGRFTISRDNAKKTVYIQMNSLKPEETAVYSCAARYRYDGRYDYWGPGTQVTVSS	high polyreactivity
QGQLVESGGGLVQAGGSLRLSCAASGRIFVIYAMGWYRQAPGKERELVAAISSRGGTTYYADSVKGRFTISRDNAKNTVYLQMNSLKPEDTAGYYCNVARFYHIYDYWGQGTHVTVSS	high polyreactivity
QGQLVESGGGLVQAGGSLRLSCAASGRIFVTYAMGWYRQAPGKERELVATINSGGSTYYADSVKGRFTISRDNAKNTVYLQMNSLKPEDTAVYYCNTDFGQAHTLSWYEDMDYWGQGTQVTVSS	low polyreactivity
QGQLVESGGGLVQAGGSLRLSCAASGRIFYQNDMGWYIQAPGKERELVADIASGGSTYYADSVKGRFTISRDNAKNTVYLQMNSLKPEDTAVYYCASAVLYGDGWYYYWGQGTQVTVSS	low polyreactivity
QGQLVESGGGLVQAGGSLRLSCAASGRSVARYAMGGYRQAPGKERELVAAITVSGDNTYYADSVKGRFTISRDNAKNTVYLQMNSLKPEDTAVYYCAVRAVLLIGFFEYDYWGQGTQVTVSS	low polyreactivity
QGQLVESGGGLVQAGGSLRLSCAASGRTFKVYAMGWYRQAPGKERELVAAISFSGGSTYYADSVKGRFTISRDNAKNTVYLQMNSLKPEDTAVYYCATTYPGAIRDYWGQGTQVTVSS	high polyreactivity
QGQLVESGGGLVQAGGSLRLSCAASGRTFRYNAMGWYRQAPGKERELVAAITWGGGSTDYADSVKGRFTISRDNAKNTVYLQMHSLKPEDTAVYYCNADYIGNYHSIYQYDYWGQGTQVTVSS	low polyreactivity
QGQLVESGGGLVQAGGSLRLSCAASGRTFVRNAMGWSSQGPGKEREWVAAISSIGDSTYYAYSLKGRFTISRDNAKNTVYLQLNTLKPEDTAVYYCAAECVTSYYNYYHWGQGTQVTVSS	low polyreactivity
QGQLVESGGGLVQAGGSLRLSCAASGSIFGENAMGWYRPAPGKERELVAAISSAGSTKYADSVKGRFTISRDNAKNTVYLQMNSLKPEDTAVYYCAAGYYRTSYPYSYYYWGQGTQVTVSS	low polyreactivity
QGQLVESGGGLVQAGGSLRLSCAASGSIFLGYAMGWYRQAPRKERELVAVITKSRGRTYYADSVKGRFTISRDNAKNTVYFQMNSLKPEDTAVYYCAKQPGSAYDYWGQGTQVTVSS	high polyreactivity
QGQLVESGGGLVQAGGSLRLSCAASGSIFRAYAMGWNRQAPGKERELVAAISWGGGSTSYADSVKGRFTISRDNAMNTVYLQMNSLKPEDTAVYYCAAELYLSRLRYWYDYWGHGTQVTVSS	high polyreactivity
QGQLVESGGGLVQAGGSLRLSCAASGSIFSHYAMGWYRQAPGKEMELVAAISRSGGSTYYADSVKGRFTISRDNAKNTVYLQMNCLKPEDTAVYYCAKEGDSGYWFDYWGQGTQVTVSS	low polyreactivity
QGQLVESGGGLVQAGGSLRLSCAASGSIFVRNAMGWYRQAPGKERELVAADSVKGRFTISRDNAKNTVYLQMNSLKPEDTAVYYCNKDYIIRRGAIVYYGFDYWGHGTQVTVSS	low polyreactivity
QGQLVESGGGLVQAGGSLRLSCAASGSSFANYDMGRYRQAPGKERELVAAITSDGSTYYADSVKGRFTISRDNAKNTVYLQMNSLKPEDTAVYYCAASTPSDAWVDDWGQGTQVTVSS	low polyreactivity
QGQLVESGGGLVQAGGSLRLSCAASGSTFGKYVMGWYRQAHGKERELVAAISRSGGSTYYADSVKGRFTISRDNAKNTVYLQLNSLKPDDTAVYYCAAYNGITSHLRFDYWGQGTQVTVSS	high polyreactivity
QGQLVESGGGLVQAGGSLRLSCAASGSTFGYNVMGWYRQAPGKERELVAAINYSGVRTYYADSVKGRFTISRDNAKNTVYLQMNSLKPEDTAVYYCNATPTRAVGPYQYNYWGQGTQVTVSS	high polyreactivity
QGQLVESGGGLVQAGGSLRLSCAASGSTFRLYAMGWYRQAPGKERELVAAISQRGASTYADSVKGRFTISRDNAKNTLNLQMNSLKPEDTAFYYCSAVRNCRYWYRQYGFCGQGTQVTVSS	high polyreactivity
QGQLVESGGGLVQAGGSLRLSCAASGSTYLGNDMAWYIQAPGKERELVATITGSSGSTYYADSVKGRFTISRDNAKNTVYLQMNSLKPEDTAVYYCNTVYNYWDCYDYWGQGTQVTVSS	low polyreactivity
QGQLVESGGGLVQAGGSLRLSCAASVRTSVINAMGWYRQAPGKERELVAAITKRGGSTYYADSVKGRFTISRDIAKNTVYLQMNSLKPEDTEVYYCAKYPIYIQYDSWGQGTQVTVSS	high polyreactivity

Sequence	polyreactivity (PSR sort gate)
QGQLVESGGGLVQAGGSLRLSCAAYGRIFYVYAMGWYRQAPGKERELVATITSSGDGTYYADSVKGRFTISRDNAKNTGYLQMNSLIPEDTAVYYCAARSWPYSQTGKRFVEYYYWGQGTQVSVSS	low polyreactivity
QGQLVESGGGLVQAGGSLRLSCADSGNTFNPNAMGWYRQAPGKERELVAVIRFRGVSKYYADSVKGRFTISRDNAKNSVYLQMNSLKPEDTAVYYCAADFLYYYLRYYFWGQGTQVTVSS	high polyreactivity
QGQLVESGGGLVQAGGSLRLSCAGSGRTFSSNAMGWYRQGRGKVRELVASISFRGGRTYYADSVKGRFTISRHNAKKTVYLQMNSLKPEDTAVYYCVSRTKRTGYGYWGQGTQVTVSS	high polyreactivity
QGQLVESGGGLVQAGGSLRLSCPASGNTFKYYAMGWYRQAPGKEWELVAAISYSGGSTYYADSVKGRFTISRDNAKNTVYLQMNSLKPEDTAVYYCAADPTNSYLEYDEWGQGTQVTVSS	low polyreactivity
QGQLVESGGGLVQAGGSLRLSSAASGSTFARYAMGWYRQAPGKERELVAVIRSGGSTNYADSVKGRFTISRDNAKNTVYLQMNSLKPEDTAGAADLWTLHRWATYGYWGQGTQVTVSS	low polyreactivity
QGQLVESGGGLVQAGGSLRLTCSASGSTFDSYGMGWYRQAPGKERELVASISSRGGSTYYADSVKGRFTISRDTAKNTVYLQMNSLKPEDTAVYYCAADWLSWFHGYGMYYWGQGTQVTVSS	low polyreactivity
QGQLVESGGGLVQEGGSLRLSCAASGSTFKRYVMGWYRQAPGKERELVAAITWSGTRTYYADSVKGRFTISRDNAKNTVYLQMNSLKPVDTAVYYCAARLYGGYDWGQGTQVTVSS	high polyreactivity
QGQLVESGGRLVQAGGSLRLSCAASGFIFRSYAMGWYRQAPAKERELVAVISRRGVNTPYADSVKGRFTISRDTSKNTVYLQMNSLKAEDTAVYYCAKGLTALGDYWGQGTQVNVSS	high polyreactivity
QGQLVESGGVLVQGGGSLRLSCAASGSIFVYNAMGWSRQAPGKERELVAANTSSGASTYYADSVKGRFPISRDNAKNTVYLQMISLNPEDTDVYYCNAGADSTVGNYVTSFSQYDFWGQGTQVTVSS	low polyreactivity
QGQLVQSGVGLVQAGGSLSLSCAASGIIFTWYDMGWYRQAPGKERELVAAISNSGGSTYYADSVKGRFTISRDNAKNTVYLQMNSLKPEDTAVYYCNAGSYVCEEDYWGQGTQVTVSS	high polyreactivity
QGQPVESGGGLVQAGGILRLSCAASGFISGGNAMGWDRQAPGKEREFVAAIDNTGSTYYADSVKGRFTISRDNEKNTVYLQMISLKPEDTAVYYFNAEVTEDYVDNDYGGQGTQVTVSS	low polyreactivity
QGQRVESGGGLVQAGGSLRLSCAPSGRTFKYYAMGWYRQAPGKERELFAAISYTGGSTYFADSVMGRFTISRDNAKNTVYLQMNSLKPEDTAVYYCARSYYTNGNALKRDYWGQGTQVTVSS	high polyreactivity
QHQLVESGGGLVQAGASLRLSCAASGRTFFKNAKGWYRQAPGKERELVAGISRTGSTNYADSVKGRFTISSDNAKNTVYLEMNSLKPEDTAVYYCAAGVLGLPLRHRYDYWGQGTQVTVSS	low polyreactivity
QIQLVESGGGLDQAGGSLRISCAASAYTYVDYIGCYIPAPGKERELVADIDNSGGGTYYADSVTGRFTISRDNAKNTVYFLMNSLKAEDTAVYYCAAEFPYDDYYSNRDYDYWGQGTQVTVSS	low polyreactivity
QIQLVESGGGLVQAGGSLRLSCAASGSIFSGYAMGWYRQAPGKERELVAAITSGGSTDYADSVKGRFTISRDNAKNTVYLQMNSLKPEDTAVYYCAAEGGYSSYGYDYWGQGTQVTVSS	low polyreactivity
QLHLVESGGGLVQAGGSLRLSCAASGITFAGYALGWYRQAPGKERELVASITWGGGRTYYADSVKGRFTSSRDNAKNTVYLQMNSLKPEATAVYYCATRRRPQYNKYDYWGQGTQLTVSS	high polyreactivity
QLQHVESGGGLVQAGGSLRLSCAASGYIFPVNAMGSYRQAPGKERELVASLTSGGSTYYADSVKGRFTISRDNAKNTVYLQMNSLKPEDTAVYYCAAQLGYAKPYVYGEWYYYWGQGNQVTVSS	low polyreactivity
QLQIVESGGGLVQAGGSLRISCAASVFTFCKYAMGWYRPAPGKERELVAAISVSGGRTYSADSVKGRFTISRDNAKNTVYLQMNSLKPEDTEVYYCNATQWRPYVGGEYWGQGTQVTVSS	high polyreactivity
QLQLEESGGGLVQAGASLPLSCAASGLTFVEYAMGCYRQAPGKEREFVAAIRSRGGSTYYADSVKGRFTISRDNAKTTVYLQMNSLKPEDTAVYYCNADGYFWGQGTQVTVSS	low polyreactivity
QLQLEESGGGLVQAGGSLRLSCAASGRIFNYYAMGWYRPAPGKEKELVAAISTVCGSTYYADSVKGRFTISRDKAKNTVYIQMHSLKPEDTSVYYCAAYQYYDFSYSYDYWGQGTQVTVSS	low polyreactivity
QLQLQESGGGLVQAGGSLRLTCAASGYIFPTAIMRWYRQAPGTERKLVAASNPGSNTYYADSVKGRFTFSLDNAKNTVYLQMNSLTPEDAAVYSCAVSIWLDGTLDFWGQGTQVTVSS	low polyreactivity
